{"source": "paper PMC8880691", "about": "“Impact of Linker Modification and PEGylation of Vancomycin Conjugates on Structure-Activity Relationships and Pharmacokinetics” (Pharmaceuticals, 2022)", "key": {"[1]": {"assay": "Biodistribution study with excised organs, 125I-labeled compounds", "assay_type": "in vivo, female Wistar rats", "details": "rat", "procedure": "(§1) Molecular imaging and biodistribution studies were performed for VAN1 and VAN2, as well as for VAN:PEG1 and VAN:PEG2, using female Wistar rats.\nTo further compare the two modification strategies, the biodistribution profiles of VAN1, VAN2 and vancomycin were compared using excised organs. This study confirms significant liver accumulation in most cases.\n(§2) For biodistribution and pharmacokinetic studies, compounds were radiolabeled with ^125I. The previously described method for the insertion of an additional D-tyrosine to the N-terminus of the peptide moiety was used to enable […] substitution for VAN1 and VAN2 [11]. For the PEGylated derivatives, VAN:PEG1 and VAN:PEG2, tyrosine-modified FU002y was used to synthesize the intermediate. Radiolabeling was performed using the chloramine T method as previously described. Thus, a 1 mM stock solution of the respective compound in phosphate buffer/dimethyl sulfoxide was prepared. The required amount of the radionuclide (^125I) was added to a mixture of 25 μL of the stock solution and 25 μL of phosphate buffer (0.25 mM; pH = 7.5). Purification of the labeled compounds was performed by semi-preparative HPLC. Analysis was conducted by radio HPLC (Agilent 1100 series) using a Chromolith® Performance RP-18e, 100 × 3 mm column, applying a linear gradient of 0.1% TFA in water (eluent A) to 0.1% TFA in acetonitrile (eluent B) within 5 min (flow rate, 2 mL/min; UV absorbance, λ = 214 nm; γ-detection). Animals were anaesthetized by isoflurane inhalation, and appropriate amounts of the radiolabeled conjugate dissolved in 100 µL 0.9% NaCl solution were injected into the tail vein. Cumulative scintigraphic images were taken after 10 min and 1, 2, 3, 5 and 24 h. For the biodistribution studies, animals were sacrificed at the indicated points in time. The activity of the weighed organs was measured in comparison with standards. Tissue-associated activity was related to the total injected dose (ID) and expressed as a percentage of the total injected dose per gram of tissue (%ID/g). The data were calculated afterwards to obtain the respective organ/organ or organ/blood ratios."}, "[2]": {"system": "vanB vancomycin-resistant enterococci", "assay": "Microdilution assay on vancomycin-resistant strains of the vanB type", "assay_type": "cell-based", "procedure": "(§3) The conjugates were tested in microdilution assays according to CLSI (Clinical and Laboratory Standards Institute) and EUCAST (European Committee on Antimicrobial Susceptibility Testing) guidelines on both vancomycin-sensitive and-resistant Gram-positive bacterial strains.\n(§4) Antimicrobial activity assays were performed by microdilution and conducted in accordance with CLSI and EUCAST guidelines. Serial dilutions in MHB II (cation adjusted) were performed on 96-well plates using water-stock solutions of the compounds at different concentrations. Overnight cultures of bacterial strains were used to obtain bacteria in the logarithmic growth phase. Bacteria were adjusted to a McFarland corresponding to 1 × 10^8 cfu/mL. After a 1:100 dilution, the culture broth was loaded onto the 96-well polypropylene plates, resulting in a final bacterial concentration of 5 × 10^5 cfu/mL. Plates were then incubated at 37 ± 1 °C for 18–24 h. The MICs were assessed as the lowest concentration without visible growth."}, "[3]": {"system": "vanC vancomycin-resistant enterococci", "assay": "Microdilution assay on vancomycin-resistant strains of the vanC type", "assay_type": "cell-based", "details": "resistant strains of the vanC type (low-level resistant)", "procedure": "as §3, §4"}, "erythrocytes": {"system": "erythrocytes", "assay_type": "cell-based, human", "procedure": "To determine the toxicity to red blood cells and thus confirm the selectivity to bacteria, a hemoglobin release assay was carried out with VAN1, VAN2 and VAN3, as well as the PEGylated conjugate, VAN:PEG1.\nTo exclude lytic activity and to evaluate the toxicological potential of the conjugates, hemolysis studies were performed as previously described. Briefly, fresh heparinized blood of four male, fasted volunteers was taken, and erythrocytes were purified by centrifugation of the blood at 2500 rpm for 10 min. The supernatant was removed, and the resulting pellet was washed with PBS at least three times, until the supernatant remained clear. The conjugates were serially diluted from stock solutions (in phosphate-buffered saline) in a 96-well plate at concentrations ranging from 120 µg/mL to 0.23 µg/mL (VAN1) or 16 µg/mL to 0.03 µg/mL (VAN2, VAN3 and VAN:PEG1), resulting in a final volume of 50 µL. A solution of Triton®X-100 in PBS was used as positive control. Finally, 50 µL of the washed erythrocytes was loaded into each well. After incubation for 30 min at 37 °C, 75 µL PBS was added to each well, and the plates were centrifuged for 5 min at 4000 rpm. A total of 50 µL of the supernatants was then transferred into a new polystyrene, flat-bottom 96-well plate, and the absorbances were measured at 554 nm using a Tecan microplate reader. Hemolysis was calculated as follows: Hemolysis %=100×Asubstance−Aneg. control/ATriton−Aneg. control\nThe negative control was erythrocytes, treated as described but using only PBS."}, "B. subtilis DSM10": {"system": "B. subtilis DSM10", "assay": "microbe, parasite or virus in culture", "assay_type": "cell-based", "procedure": "as §3, §4\nTable S1. Minimum inhibitory concentration against B. subtilis DSM10.\nactivity. Shown is the median of at least three independent measurements (range is shown in brackets).\nCompound Minimum Inhibitory Concentration\nagainst B. subtilis DSM10 [mg/L] […]\n[mg/L] [% hemolysis] [% hemolysis] [% hemolysis] […]"}, "[4]": {"assay": "Molecular imaging (scintigraphy) of 125I-labeled compounds", "assay_type": "in vivo, female Wistar rats", "details": "rat", "procedure": "as §1, §2"}, "[5]": {"details": "10 min post injection, tail vein, from %ID/g of excised organs"}}, "note": "Structures can show the parent of a compound that is named as a salt."}
{"smiles": "CC(C)C[C@H](C(=O)N[C@H]1C(=O)N[C@@H](CC(N)=O)C(=O)N[C@H]2C(=O)N[C@H]3C(=O)N[C@H](C(=O)N[C@H](C(=O)O)c4cc(O)cc(O)c4-c4cc3ccc4O)[C@H](O)c3ccc(c(Cl)c3)Oc3cc2cc(c3O[C@@H]2O[C@H](CO)[C@@H](O)[C@H](O)[C@H]2O[C@H]2C[C@](C)(N)[C@H](O)[C@H](C)O2)Oc2ccc(cc2Cl)[C@H]1O)N(C)C(=O)CCOCCOCCOCCOCCOCCOCCOCCOCCOCCOCCOCCOCCNC(=O)CCN1C(=O)CC(SC[C@H](NC(=O)[C@H](CCCNC(=N)N)NC(=O)[C@H](CCCNC(=N)N)NC(=O)[C@H](CCCNC(=N)N)NC(=O)[C@H](CCCNC(=N)N)NC(=O)[C@H](CCCNC(=N)N)NC(=O)[C@@H](N)CCCNC(=N)N)C(N)=O)C1=O", "note": "(stereo partly drawn) [VAN2]", "values": [{"measurement": "Ratio Kidney/Blood", "setting": "[1]; in vivo", "result": 10.09}, {"measurement": "Ratio Liver/Blood", "setting": "[1]; in vivo", "result": 9.25}, {"measurement": "Ratio Liver/Kidney", "setting": "[1]; in vivo", "result": 0.92}, {"measurement": "overcoming the molar-resistance breakpoint (EUCAST), vanB type", "setting": "[2]", "result": "able to overcome the molar-resistance breakpoint"}, {"measurement": "overcoming the molar-resistance breakpoint (EUCAST), vanC type", "setting": "[3]", "result": "able to overcome the molar-resistance breakpoint"}, {"measurement": "hemolytic activity", "setting": "erythrocytes", "result": "None of the compounds showed significant hemolytic activity"}, {"measurement": "Minimum Inhibitory Concentration against B. subtilis DSM10", "setting": "B. subtilis DSM10", "result": "2 (1–4) mg/L"}, {"measurement": "pharmacokinetic behavior by molecular imaging", "setting": "[4]; in vivo", "result": "rapid liver accumulation can still be observed, in addition to renal elimination"}]}
{"smiles": "CN[C@H](CC(C)C)C(=O)N[C@H]1C(=O)N[C@@H](CC(N)=O)C(=O)N[C@H]2C(=O)N[C@H]3C(=O)N[C@H](C(=O)N[C@H](C(=O)O)c4cc(O)cc(O)c4-c4cc3ccc4O)[C@H](O)c3ccc(c(Cl)c3)Oc3cc2cc(c3O[C@@H]2O[C@H](CO)[C@@H](O)[C@H](O)[C@H]2O[C@H]2C[C@](C)(N)[C@H](O)[C@H](C)O2)Oc2ccc(cc2Cl)[C@H]1O", "note": "[Vancomycin, vancomycin hydrochloride]", "values": [{"measurement": "Ratio Kidney/Blood", "setting": "[1]; [5]", "result": 2.16}, {"measurement": "Ratio Liver/Blood", "setting": "[1]; [5]", "result": 0.36}, {"measurement": "Ratio Liver/Kidney", "setting": "[1]; [5]", "result": 0.17}, {"measurement": "MIC", "setting": "B. subtilis DSM10; Bacillus subtilis, DSM10, read-out: Minimum Inhibitory Concentration against B. subtilis DSM10", "result": 0.25, "unit": "µg/mL"}, {"measurement": "pharmacokinetic behavior by molecular imaging", "setting": "[4]; 125I-labeled, tail vein injection, scintigraphic images 10 min to 24 h", "result": "fast renal elimination"}]}
{"smiles": "CC(C)C[C@H](C(=O)N[C@H]1C(=O)N[C@@H](CC(N)=O)C(=O)N[C@H]2C(=O)N[C@H]3C(=O)N[C@H](C(=O)N[C@H](C(=O)O)c4cc(O)cc(O)c4-c4cc3ccc4O)[C@H](O)c3ccc(c(Cl)c3)Oc3cc2cc(c3O[C@@H]2O[C@H](CO)[C@@H](O)[C@H](O)[C@H]2O[C@H]2C[C@](C)(N)[C@H](O)[C@H](C)O2)Oc2ccc(cc2Cl)[C@H]1O)N(C)C(=O)CN1C(=O)CC(SC[C@H](NC(=O)[C@H](CCCNC(=N)N)NC(=O)[C@H](CCCNC(=N)N)NC(=O)[C@H](CCCNC(=N)N)NC(=O)[C@H](CCCNC(=N)N)NC(=O)[C@H](CCCNC(=N)N)NC(=O)[C@@H](N)CCCNC(=N)N)C(N)=O)C1=O", "note": "(stereo partly drawn) [VAN3]", "values": [{"measurement": "hemolytic activity", "setting": "erythrocytes", "result": "None of the compounds showed significant hemolytic activity"}, {"measurement": "Minimum Inhibitory Concentration against B. subtilis DSM10", "setting": "B. subtilis DSM10", "result": "< 0.125", "unit": "mg/L"}]}
{"smiles": "CC(C)C[C@H](C(=O)N[C@H]1C(=O)N[C@@H](CC(N)=O)C(=O)N[C@H]2C(=O)N[C@H]3C(=O)N[C@H](C(=O)N[C@H](C(=O)O)c4cc(O)cc(O)c4-c4cc3ccc4O)[C@H](O)c3ccc(c(Cl)c3)Oc3cc2cc(c3O[C@@H]2O[C@H](CO)[C@@H](O)[C@H](O)[C@H]2O[C@H]2C[C@](C)(N)[C@H](O)[C@H](C)O2)Oc2ccc(cc2Cl)[C@H]1O)N(C)C(=O)CCCCCCCCCCN1C(=O)CC(SC[C@H](NC(=O)[C@H](CCCNC(=N)N)NC(=O)[C@H](CCCNC(=N)N)NC(=O)[C@H](CCCNC(=N)N)NC(=O)[C@H](CCCNC(=N)N)NC(=O)[C@H](CCCNC(=N)N)NC(=O)[C@@H](N)CCCNC(=N)N)C(N)=O)C1=O", "note": "(stereo partly drawn) [VAN1]", "values": [{"measurement": "Ratio Kidney/Blood", "setting": "[1]; in vivo", "result": 2.22}, {"measurement": "Ratio Liver/Blood", "setting": "[1]; in vivo", "result": 10.13}, {"measurement": "Ratio Liver/Kidney", "setting": "[1]; in vivo", "result": 4.47}, {"measurement": "hemolytic activity", "setting": "erythrocytes", "result": "None of the compounds showed significant hemolytic activity"}, {"measurement": "Minimum Inhibitory Concentration against B. subtilis DSM10", "setting": "B. subtilis DSM10", "result": "1 (0.5–1) mg/L"}, {"measurement": "pharmacokinetic behavior by molecular imaging", "setting": "[4]; in vivo", "result": "accumulates quickly in the liver"}]}
